This is an account of results in US20060021073A1.

In this assay the target is Rab3. Put plainly: cell-based or functional assay.

As to “wild-type Noc2 expressed from adenovirus Ad-Noc2 wt in pancreatic islets of Noc2-/- mice (from UniProt Q768S4 1-302)”, the Ca2+-triggered insulin secretion in cultured pancreatic islets of Noc2-/- mice (ng/islet/30 min) amounted to 1.2.
